From patent US20230077531A1 (Sanofi, published 2023)
Positions count from the first letter of the chain named. Numbers in names are those of the source.

T1: human FcγRIIa R131 (human, UniProt P12318 34-317, limits assumed)
T1 construct: FACS implies display on cells, but the methods name no FcγRIIa cell line; also called huFcγRIIa R131
T1 sequence (looked up): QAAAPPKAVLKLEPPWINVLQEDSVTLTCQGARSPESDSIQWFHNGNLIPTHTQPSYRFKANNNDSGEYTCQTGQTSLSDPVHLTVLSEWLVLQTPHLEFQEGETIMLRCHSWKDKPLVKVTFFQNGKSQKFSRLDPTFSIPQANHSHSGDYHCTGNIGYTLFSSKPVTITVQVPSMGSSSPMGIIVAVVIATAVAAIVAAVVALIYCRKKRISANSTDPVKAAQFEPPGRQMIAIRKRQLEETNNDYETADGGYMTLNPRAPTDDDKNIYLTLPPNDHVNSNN

T2: human FcγRIIa H131 (human, UniProt P12318 34-317, limits assumed)
T2 construct: FACS implies display on cells, but the methods name no FcγRIIa cell line; also called huFcγRIIa H131
T2 sequence (looked up): T1 sequence (looked up) with R134H

B1: mAb1-ADLE-L242C-K334C (antibody)
chain 1: QVQLVQSGAEVKKPGASVKVSCKASGYSFTSYGISWVRQAPGQGLEWMGWISTYKGYTQYAQNFQGRVTITTDTPATTVYMELRSLRSDDTAVYYCARVLSETGYFYYYYYGMDVWGQGTLVTVSSASTKGPSVFPLAPSSKSTSGGTAALGCLVKDYFPEPVTVSWNSGALTSGVHTFPAVLQSSGLYSLSSVVTVPSSSLGTQTYICNVNHKPSNTKVDKKVEPKSCDKTHTCPPCPAPELLAGPDVFCFPPKPKDTLMISRTPEVTCVVVDVSHEDPEVKFNWYVDGVEVHNAKTKPREEQYNSTYRVVSVLTVLHQDWLNGKEYKCKVSNKALPLPEECTISKAKGQPREPQVYTLPPSRDELTKNQVSLTCLVKGFYPSDIAVEWESNGQPENNYKTTPPVLDSDGSFFLYSKLTVDKSRWQQGNVFSCSVMHEALHNHYTQKSLSLSPG
chain 2: QAVVTQPPSVSGAPGQRVTISCTGSSSNIGADYNVHWYQLLPGTAPKLLIYGNTNRPSGVPDRFSGSKSGTSASLAITGLQAEDEADYYCQSYDSSLSASVFGGGTKLTVLGQPKAAPSVTLFPPSSEELQANKATLVCLISDFYPGAVTVAWKADSSPVKAGVETTTPSKQSNNKYAASSYLSLTPEQWKSHRSYSCQVTHEGSTVEKTVAPTECS
B2: mAb1-ADE-L242C-K334C (antibody)
chain 1: B1 chain 1 with L339A
chain 2: B1 chain 2
B3: mAb1-ADLE (antibody)
chain 1: B1 chain 1 with C251L, C343K
chain 2: B1 chain 2
B4: mAb1-ADE-DQ (antibody)
chain 1: B1 chain 1 with C251L, T265D, T316Q, L339A, C343K
chain 2: B1 chain 2
B5: mAb1 (wt) (IgG1) (antibody)
chain 1: not shown
chain 2: B1 chain 2
B6: mAb1-ADE (antibody)
chain 1: B1 chain 1 with C251L, L339A, C343K
chain 2: B1 chain 2
B7: mAb1-ADLE-R292C-V302C (antibody)
chain 1: B1 chain 1 with C251L, R301C, V311C, C343K
chain 2: B1 chain 2
B8: mAb1-DE (antibody)
chain 1: not shown
chain 2: B1 chain 2
B9: mAb1-ADE-R292C-V302C (antibody)
chain 1: B1 chain 1 with C251L, R301C, V311C, L339A, C343K
chain 2: B1 chain 2
B10: mAb1-ADE-DQ-L242C-K334C (antibody)
chain 1: B1 chain 1 with T265D, T316Q, L339A
chain 2: B1 chain 2
B11: mAb1-ADE-DQ-R292C-V302C (antibody)
chain 1: B1 chain 1 with C251L, T265D, R301C, V311C, T316Q, L339A, C343K
chain 2: B1 chain 2

The binders below were run against T3, huFcγRIIIa_V158 His protein (human, UniProt P08637 17-208) (assay: SPR, His-receptor captured, assay 1 n=3).
T3 construct: also called His-tagged recombinant human FcγRIIIa-V158
T3 sequence (P08637 17-208 F176V limits assumed): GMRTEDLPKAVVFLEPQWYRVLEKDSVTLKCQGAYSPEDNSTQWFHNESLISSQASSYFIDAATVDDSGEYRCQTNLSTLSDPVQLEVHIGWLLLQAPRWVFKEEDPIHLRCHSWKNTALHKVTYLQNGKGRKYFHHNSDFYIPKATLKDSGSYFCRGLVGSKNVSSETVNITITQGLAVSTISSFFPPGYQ

B1 and B2 are within 1.5-fold of each other in Kd: 161 nM for the first, 162 nM for the second.

First: B3
Second: B4
The Kd of the first is 2-fold lower: 77 nM for the first, 155 nM for the second. The first binds more tightly here.

Compared with B5, B6 is 15-fold lower in Kd: 1620 nM for the first, 107 nM for the second.

Compared with B7, B8 is 4.5-fold lower in Kd: 258 nM for the first, 57 nM for the second. The second binds more tightly here.

B9 and B10 are within 1.5-fold of each other in Kd: 172 nM for the first, 191 nM for the second.

Work on B11 yielded a Kd of 214 nM.

These binders were tested against T4, huFcγRIIIa_F158 His protein (human, UniProt P08637 17-208) (assay: SPR, His-receptor captured, assay 1 n=3).
T4 sequence (P08637 17-208 limits assumed): as the sequence (P08637 17-208 F176V limits assumed) above, with V160F counted along it

B1 and B2 are within 1.5-fold of each other in Kd: 148 nM for the first, 193 nM for the second.

Going from B3 to B4, the Kd rises from 94 nM to 183 nM (1.9-fold).

Going from B5 to B6, the Kd falls from 3870 nM to 150 nM (26-fold). The second binds more tightly here.

First: B7
Second: B8
The Kd of the first is 2.1-fold higher: 296 nM for the first, 141 nM for the second.

B9 and B10 are the same in Kd: 211 nM for the first, 211 nM for the second.

B11 showed a Kd of 202 nM.

Each binder was assayed against T3, huFcγRIIIa_V158 His protein (assay: SPR, His-receptor captured, assay 2 n=3).

Compared with B3, B5 is 18-fold higher in Kd: 22 nM for the first, 386 nM for the second. The first binds more tightly here.

In the case of B8, the Kd is reported as 17 nM.

The binders below were run against T4, huFcγRIIIa_F158 His protein (assay: SPR, His-receptor captured, assay 2 n=3).

Going from B3 to B5, the Kd rises from 46 nM to 1330 nM (29-fold).

B8 was tested, and the Kd was 48 nM.

Each binder was assayed against T5, human FcRn (human, UniProt P55899 24-297) (assay: SPR pH 6.0, huFcRn captured, assay 1 n=3).
T5 construct: also called huFcRn; recombinant human FcRn
T5 sequence (P55899 24-297): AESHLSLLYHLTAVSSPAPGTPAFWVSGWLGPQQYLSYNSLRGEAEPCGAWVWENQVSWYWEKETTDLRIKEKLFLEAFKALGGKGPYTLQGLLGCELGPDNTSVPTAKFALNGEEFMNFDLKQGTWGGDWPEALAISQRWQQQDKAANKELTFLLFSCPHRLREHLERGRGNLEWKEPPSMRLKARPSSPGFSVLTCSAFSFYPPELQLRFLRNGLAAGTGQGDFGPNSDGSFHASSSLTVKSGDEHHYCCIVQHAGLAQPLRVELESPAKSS

B1 and B2 are within 1.5-fold of each other in Kd: 956 nM for the first, 829 nM for the second.

Going from B3 to B4, the Kd falls from 993 nM to 217 nM (4.6-fold).

B5 and B6 are within 1.5-fold of each other in Kd: 1210 nM for the first, 1040 nM for the second.

B7 and B8 are within 1.5-fold of each other in Kd: 1130 nM for the first, 996 nM for the second.

Compared with B9, B10 is 8.1-fold lower in Kd: 1310 nM for the first, 161 nM for the second. The second binds more tightly here.

With B11 the Kd was 198 nM.

Each binder was assayed against T6, FcγRIIIa V158 on HEK293T cells (human, UniProt P08637 17-254) (assay: FACS on HEK293T-FcγRIIIa cells, assay 1 n=3; bracketed value under the V158 cell).
T6 construct: whole, on cells
T6 sequence (P08637 17-254 F176V): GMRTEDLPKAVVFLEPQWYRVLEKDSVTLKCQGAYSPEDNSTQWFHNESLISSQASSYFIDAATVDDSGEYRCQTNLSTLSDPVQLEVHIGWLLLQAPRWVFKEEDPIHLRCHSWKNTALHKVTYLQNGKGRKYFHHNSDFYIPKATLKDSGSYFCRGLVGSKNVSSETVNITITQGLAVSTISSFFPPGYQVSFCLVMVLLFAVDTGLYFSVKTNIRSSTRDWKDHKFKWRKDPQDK

Binder B3 has an EC50 of 2.71 nM.

What follows are binders tested against T7, FcγRIIIa F158 on HEK293T cells (human, UniProt P08637 17-254) (assay: FACS on HEK293T-FcγRIIIa cells, assay 1 n=3; bracketed value under the F158 cell).
T7 construct: whole, on cells; also called HEK293T-FcγRIIIa F158
T7 sequence (P08637 17-254): as the sequence (P08637 17-254 F176V) above, with V160F counted along it

B3 was tested, and the EC50 was 4.37 nM.

The binders below were run against T7, FcγRIIIa F158 on HEK293T cells (assay: FACS on HEK293T-FcγRIIIa cells, assay 1 n=3; cell shifted up, taken as F158).

With B5 the EC50 was 1060 nM.

Each binder was assayed against T1, human FcγRIIa R131 (assay: FACS, assay 1 n=3).

Going from B1 to B2, the EC50 falls from 428 nM to 142 nM (3-fold). The second is the more potent here.

Going from B3 to B4, the EC50 falls from 85 nM to 18 nM (4.7-fold). The second is the more potent here.

Going from B5 to B6, the EC50 falls from 303 nM to 20 nM (15-fold).

B7 and B8 are within 1.5-fold of each other in EC50: 144 nM for the first, 198 nM for the second.

First: B9
Second: B10
The EC50 of the first is 3.5-fold lower: 43 nM for the first, 152 nM for the second. The first is the more potent here.

With B11 the EC50 was 45 nM.

These binders were tested against T2, human FcγRIIa H131 (assay: FACS, assay 1 n=3).

B1 and B2 are within 1.5-fold of each other in EC50: 145 nM for the first, 102 nM for the second.

Going from B3 to B4, the EC50 falls from 70 nM to 14 nM (5-fold).

Going from B5 to B6, the EC50 falls from 341 nM to 20 nM (17-fold).

B7 and B8 are within 1.5-fold of each other in EC50: 155 nM for the first, 106 nM for the second.

B9 and B10 are within 1.5-fold of each other in EC50: 92 nM for the first, 68 nM for the second.

B11 was tested, and the EC50 was 101 nM.

Each binder was assayed against T6, FcγRIIIa V158 on HEK293T cells (assay: FACS on HEK293T-FcγRIIIa cells, assay 1 n=3).

B1 and B2 are the same in EC50: 5 nM for the first, 5 nM for the second.

B3 and B4 are within 1.5-fold of each other in EC50: 3 nM for the first, 4 nM for the second.

Going from B5 to B6, the EC50 falls from 186 nM to 3 nM (62-fold).

First: B7
Second: B8
The EC50 of the first is 6-fold higher: 12 nM for the first, 2 nM for the second.

Compared with B9, B10 is 1.7-fold lower in EC50: 12 nM for the first, 7 nM for the second. The second is the more potent here.

Binder B11 has an EC50 of 10 nM.

The binders below were run against T7, FcγRIIIa F158 on HEK293T cells (assay: FACS on HEK293T-FcγRIIIa cells, assay 1 n=3).

First: B1
Second: B2
The EC50 of the first is 1.6-fold lower: 11 nM for the first, 18 nM for the second.

Going from B3 to B4, the EC50 rises from 4 nM to 13 nM (3.2-fold).

Compared with B5, B6 is 120-fold lower in EC50: 1060 nM for the first, 9 nM for the second.

Going from B7 to B8, the EC50 falls from 25 nM to 11 nM (2.3-fold).

B9 and B10 are the same in EC50: 19 nM for the first, 19 nM for the second.

B11 gave an EC50 of 17 nM.

What follows are binders tested against T5, human FcRn (assay: SPR pH 6.0, huFcRn captured, assay 2 n=3).

B3 and B5 are within 1.5-fold of each other in Kd: 811 nM for the first, 941 nM for the second.

Work on B8 yielded a Kd of 761 nM.

What follows are binders tested against T6, FcγRIIIa V158 on HEK293T cells (assay: FACS on HEK293T-FcγRIIIa cells, assay 2 n=1).

Going from B3 to B5, the EC50 rises from 5 nM to 244 nM (49-fold).

Binder B8 has an EC50 of 4 nM.

Each binder was assayed against T7, FcγRIIIa F158 on HEK293T cells (assay: FACS on HEK293T-FcγRIIIa cells, assay 2 n=1).

First: B3
Second: B5
The EC50 of the first is 110-fold lower: 7 nM for the first, 744 nM for the second.

With B8 the EC50 was 18 nM.
